# Data: US20230138315A1 (JIANGSU HENGRUI MEDICINE, published 2023)
# T1: human ANGPTL3(17-170)-Flag-His (human)
# T1 chain: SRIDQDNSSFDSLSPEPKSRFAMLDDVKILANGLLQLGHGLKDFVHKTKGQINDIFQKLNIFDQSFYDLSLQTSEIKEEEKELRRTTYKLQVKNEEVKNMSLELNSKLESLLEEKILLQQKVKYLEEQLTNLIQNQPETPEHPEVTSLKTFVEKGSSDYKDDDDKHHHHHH
# T2: rat ANGPTL3(17-455)-His (rat, biotin-labelled in the ELISA and HTRF assays (sites not given))
# T2 construct: also called full-length rat ANGPTL3
# T2 chain: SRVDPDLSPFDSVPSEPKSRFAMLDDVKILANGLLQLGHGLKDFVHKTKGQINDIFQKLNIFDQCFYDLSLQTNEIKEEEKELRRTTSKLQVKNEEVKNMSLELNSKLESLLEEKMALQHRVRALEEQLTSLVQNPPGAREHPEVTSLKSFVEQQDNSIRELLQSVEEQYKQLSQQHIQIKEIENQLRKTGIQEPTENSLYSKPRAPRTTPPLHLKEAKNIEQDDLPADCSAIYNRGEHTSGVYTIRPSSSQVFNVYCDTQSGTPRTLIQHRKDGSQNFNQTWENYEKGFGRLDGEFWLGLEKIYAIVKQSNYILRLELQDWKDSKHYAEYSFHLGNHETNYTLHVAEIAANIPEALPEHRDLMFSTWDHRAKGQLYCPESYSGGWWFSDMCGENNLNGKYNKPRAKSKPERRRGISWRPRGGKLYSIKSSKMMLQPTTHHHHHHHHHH
# T3: cynomolgus monkey ANGPTL3(17-460)-His (cynomolgus monkey, UniProt Q9Y5C1 17-460 (human entry), biotin-labelled in the ELISA and HTRF assays (sites not given))
# T3 construct: also called full-length cynomolgus monkey ANGPTL3; Cyno ANGPTL3
# T3 chain: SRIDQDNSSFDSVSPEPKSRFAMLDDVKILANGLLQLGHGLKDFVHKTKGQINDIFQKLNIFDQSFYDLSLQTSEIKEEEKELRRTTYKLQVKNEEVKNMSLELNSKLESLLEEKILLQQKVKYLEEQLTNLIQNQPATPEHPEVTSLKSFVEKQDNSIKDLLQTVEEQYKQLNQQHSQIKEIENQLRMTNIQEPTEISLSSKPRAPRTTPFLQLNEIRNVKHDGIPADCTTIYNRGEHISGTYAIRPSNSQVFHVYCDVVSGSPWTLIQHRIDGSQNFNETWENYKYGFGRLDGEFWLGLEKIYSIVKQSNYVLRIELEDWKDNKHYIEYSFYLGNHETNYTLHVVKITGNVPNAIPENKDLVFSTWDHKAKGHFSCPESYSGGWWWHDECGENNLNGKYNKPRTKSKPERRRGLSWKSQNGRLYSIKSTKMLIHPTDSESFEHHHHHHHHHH
# T4: human-ANGPTL3(17-460)-His (human, UniProt Q9Y5C1 17-460, biotin-labelled (labelling kit, sites not stated))
# T4 construct: also called full-length human ANGPTL3
# T4 sequence: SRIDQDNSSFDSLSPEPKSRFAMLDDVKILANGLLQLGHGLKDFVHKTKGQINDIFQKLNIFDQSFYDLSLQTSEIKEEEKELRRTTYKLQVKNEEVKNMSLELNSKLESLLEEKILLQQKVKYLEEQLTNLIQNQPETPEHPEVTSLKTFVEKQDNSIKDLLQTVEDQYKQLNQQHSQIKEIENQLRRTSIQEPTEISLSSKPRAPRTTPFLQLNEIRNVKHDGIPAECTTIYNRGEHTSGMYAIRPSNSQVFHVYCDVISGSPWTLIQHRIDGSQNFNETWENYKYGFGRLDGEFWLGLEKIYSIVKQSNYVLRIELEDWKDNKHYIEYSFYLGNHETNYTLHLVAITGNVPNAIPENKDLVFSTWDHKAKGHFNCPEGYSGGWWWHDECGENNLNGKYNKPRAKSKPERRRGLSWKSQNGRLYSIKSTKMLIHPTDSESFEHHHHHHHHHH
# T5: mouse ANGPTL3(17-455)-His (mouse, UniProt Q9R182 17-455, biotin-labelled in the ELISA and HTRF assays (sites not given))
# T5 construct: also called full-length mouse ANGPTL3
# T5 sequence: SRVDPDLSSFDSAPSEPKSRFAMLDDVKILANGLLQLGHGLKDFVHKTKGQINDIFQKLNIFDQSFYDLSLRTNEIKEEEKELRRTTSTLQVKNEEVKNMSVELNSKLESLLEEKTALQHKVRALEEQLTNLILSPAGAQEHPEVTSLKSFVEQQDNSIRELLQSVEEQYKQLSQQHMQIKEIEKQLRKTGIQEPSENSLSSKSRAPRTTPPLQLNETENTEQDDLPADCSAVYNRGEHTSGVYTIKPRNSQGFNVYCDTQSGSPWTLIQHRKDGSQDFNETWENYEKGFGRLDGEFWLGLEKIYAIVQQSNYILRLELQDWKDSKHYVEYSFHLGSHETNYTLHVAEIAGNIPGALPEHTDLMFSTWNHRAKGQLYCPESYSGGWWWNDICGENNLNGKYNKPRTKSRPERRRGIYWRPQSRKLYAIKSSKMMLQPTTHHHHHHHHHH
# Key:
# [1] = molecular target: T1, human ANGPTL3(17-170)-Flag-His; assay: cell-based or functional assay
# rat ANGPTL3(17-455)-His = molecular target: T2, rat ANGPTL3(17-455)-His; assay: HTRF; biotin-labelled antigen with Streptavidin-Tb cryptate
# [2] = molecular target: T3, cynomolgus monkey ANGPTL3(17-460)-His; assay: as above
# [3] = molecular target: T4, human-ANGPTL3(17-460)-His; assay: as above
# [4] = molecular target: T5, mouse ANGPTL3(17-455)-His; assay: as above
binder,measurement,setting,value
"P3G (antibody, human IgG4 S228P, kappa, V domains shown, also called anti-ANGPTL3 antibody P3G; P3 (variable regions)) VH: QVQLVQSGAEVKKPGASVKVSCKSSGYTFTDYYLHWLRQAPGQGPEWMGWISPNSGGTSYAQKFQGRVTMTRDTSISTAYMELSSLRSDDTAVYYCARDIATLGNFFTYGMDVWGQGTTVTVSS VL: DIQLTQSPSSLSASVGDRVTITCRASQGIRNDLGWYQQKPGKAPKLLIYAASSLQSGVPSRFSGSGSGTDFTLTISSLQPEDFATYYCQQSYSSWTFGQGTKVEIKR",IC50 of blocking the inhibition of bovine LPL enzyme activity by ANGPTL3,[1],68.9 nM
"P8BG (antibody, human IgG4 S228P, kappa, V domains shown, also called anti-ANGPTL3 antibody P8BG; P8B (variable regions)) VH: QVQLVQSGAEVKKPGASVKVSCKASGYTFTSYDINWVRQAPGQGLEWVGLINPREDSTSYAQKFQGRVTMTRDTSTSTMYMELSSLRSEDTAVYFCARDLGSIREVLYYGMDVWGQGTTVTVSS VL: not shown",IC50 of blocking the inhibition of bovine LPL enzyme activity by ANGPTL3,[1],75.3 nM
same,EC50,rat ANGPTL3(17-455)-His,0.362 nM
same,EC50,[2],0.36 nM
same,EC50,[3],0.277 nM
same,EC50,[4],0.321 nM
